Data published in the supplement of paper PMC9170038.

System: MS2 coat protein
Assay: apparent KD of MS2 coat protein; designed switch direction (-1 OFF switch, 1 ON switch): 1; higher = weaker reporter binding
Outline: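 Three titration conditions were used: no input, 200 uM small-molecule ligand, and an oligonucleotide input. In each, SNAP-549-labelled MS2 coat protein was raised from 0.7 or 1.5 nM, doubling, to 3 µM over designed RNA switches transcribed on Illumina chips by stalled E. coli RNA polymerase. Curve fits of normalised cluster fluorescence gave values whose per-design median over clusters is the apparent KD.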

[1] = input ligand: microRNA oligo, concentration not stated
[2] = Eterna round: R95, input ligand: FMN 200 uM
[3] = Eterna round: R95, input ligand: microRNA oligo, concentration not stated
[4] = Eterna round: R95, input ligand: none

Row | Sequence | apparent KD of MS2 coat protein (input ligand: FMN 200 uM) [nM] | apparent KD of MS2 coat protein [1] [nM] | apparent KD of MS2 coat protein (input ligand: none) [nM] | apparent KD of MS2 coat protein [2] [nM] | apparent KD of MS2 coat protein [3] [nM] | apparent KD of MS2 coat protein [4] [nM]
1 | GCGAGCGUACUUGCUACAUGAGGAUCACCCAUGUCUGUUGGACAGGAUAUGGUACCGUUUCGGUACCAGAAGGGUUCAUCAUGU [JL SSNG3 3.74] (Eterna round: R96, puzzle: Same State NG 3) | 439 | 74 | 262 | – | – | –
2 | UUAAUAAAUCAAGGAUAUCACGUCGUUUAGACGUGAGAAGGUGAUCAUAACAUGAGGAUCACCCAUGUAUUACAUGAAUAUUAA [SSNG1/1-B3] (Eterna round: R96, puzzle: Same State NG 1) | 1180 | 778 | 1570 | – | – | –
3 | AAUAUACAUGAGGAUCACCCAUGUUAGUAAAUGACAGGAUAUGGAAUAAAUAAAUAAUAACCAGAAGGGUCUAAUA [JMF's solution 2] (puzzle: Same State 1) | – | – | – | 16 | 24.9 | 28.5
4 | GUGGUCAGACAUGAGGAUCACCCAUGUGGAAUAAAUAAGGGUUAGGAUAUGCAAUAUAGGAUAUAGCAGAAGGGAUGGUUGGUG (Eterna round: R96, puzzle: Same State NG 3) | – | 84.9 | – | – | – | –
5 | UAAGAACAUGAGGAUCACCCAUGUGGAAAGAACACAGGAUAUCAUAGAAGGACGCGACUAUGAGAAGGGUGACACG [Lequat] (puzzle: Same State 1) | – | – | – | 390 | 104 | 218
6 | UGUCCAGCCUGAGCUGGACAAAAGCAUGUACAUGAGGAUCACCCAUGUUCAUGUACAAGCUUUUUGCUCGUCUUAGU [salish99_208a_r3_065] (puzzle: Sensor for hsa-mir-208a) | – | – | – | 489 | 13.8 | 619
7 | UUGAAGAAUUAAGGAUAUUGAAUACAUAUGUUUAACAUGAGGAUCACCCAUGUGGGUUGCGGUAUCGAGAAGGUAAAUUACUAG [JL SSNG2 1.49] (Eterna round: R96, puzzle: Same State NG 2) | 112 | 76.3 | 119 | – | – | –
8 | GGUCCAGCCUGAGCUGGACAAAAGCAUGUACAUGAGGAUCACCCAUGUCAUGUACAAGCUUUUUGCUCGUCAUAAAU [Mat - hsa-mir-208a - 96] (Eterna round: R96, puzzle: Sensor for hsa-mir-208a) | 573 | 16.3 | 435 | – | – | –
9 | UUUAGUUGCGGGCAGGAUAUGUAUUAAAAUACAUGAGGAUCACCCAUGUGGGACCGAAAAGGUCUACAGAAGGGCCAAUCGCGAC [Laonerce - 21] (puzzle: Same State 2) | – | – | – | 17.1 | 53.3 | 77.1
10 | UUUUUUUUUUAGAGACAAGCUUUUUGAUCACAUGAGGAUCACCCAUGUCUCGUCUUAUUUUUUUUUUUUUUUUUUUU [BA Sensor hsa-mir-208a - 2 - 4] (puzzle: Sensor for hsa-mir-208a) | – | – | – | 37.3 | 17.5 | 103
11 | GUUCGGAAUCGAGCUGACAUGAGGAUCACCCAUGUUAGUGGGAAGGAUAUGGUACAGAAACUGUACCAGAAGGUCUUACUGUCU (Eterna round: R96, puzzle: Same State NG 3) | 47 | 66.7 | 67.4 | – | – | –
12 | CAGCGCUGUCGAGAGGAUAUGCGGUGAUGGACAUGAGGAUCACCCAUGUUAGCGACAGCAUCACGGCAGAAGGCUCUACCCGCUG [Soteed Omei mod 44] (puzzle: Same State 2) | – | – | – | – | 10.6 | –
13 | GUUAAACAUGAGGAUCACCCAUGUCAUCUAAGUCGAGGAUAUGGGAAUUAAUUAAUUAAACCAGAAGGCGAAAAUG [Mat - Same State 1 - D96] (puzzle: Same State 1) | – | – | – | 39 | 174 | 126
14 | AAGGGAUGAGCGUAGGAUAUAGGAGAAGUGACAUGAGGAUCACCCAUGUAAAAGGAGGGAUGAGACUAGAAGGACGAGGUAGGAG [JR_SS2_Sub059] (Eterna round: R96, puzzle: Same State 2) | 82.7 | 55.4 | 78.3 | – | – | –
15 | UCUUGGUUUUUGCUCGUUUUUUGUGUUGAACAUGAGGAUCACCCAUGUAUUGUACGGUCCAAUUUAAUAGUGGUCCG [JMF 24] (puzzle: Sensor for hsa-mir-208a) | – | – | – | 25.5 | 15.3 | 28
16 | AUUCGUUAGAUAGGAUAUCACCAUACAUGAGGAUCACCCAUGUUUACCACGCUGGUUUUUCAUACUGAGAAGGAUCUUGAUGAC [JR_SSNG2_Sub006] (Eterna round: R96, puzzle: Same State NG 2) | 20.7 | 16.7 | 30 | – | – | –

Row | Sequence | apparent KD of MS2 coat protein (input ligand: FMN 200 uM) [nM] | apparent KD of MS2 coat protein [1] [nM] | apparent KD of MS2 coat protein (input ligand: none) [nM] | apparent KD of MS2 coat protein [2] [nM] | apparent KD of MS2 coat protein [3] [nM] | apparent KD of MS2 coat protein [4] [nM]
17 | AGAUCAUGACGAGGAUAUGCGACAUGAGGAUCACCCAUGUAUGUUGCAGGACGCGUACGUCCAAUGUAGAAGGCGUCGUGGUCA [JL SSNG2 1.05] (Eterna round: R96, puzzle: Same State NG 2) | 22.8 | 65.1 | 88.7 | – | – | –
18 | UGGAUCUAGGCUUGCCUGGGUCCAUGUUGACAUGAGGAUCACCCAUGUGUAUUUUUUAAGCUUUUUGUUUGUCAACU [JL A Humble Attempt mod 9] (puzzle: Sensor for hsa-mir-208a) | – | – | – | 28.3 | 12.5 | 29.3
19 | UGAACCGUCACAGGAUAUCAUGCGAAAAUUGCGUGAGAAGGGUGGAUGUUGUGUUCAAAGAUGUACAUGAGGAUCACCCAUGUU [SameState NG1 #47] (Eterna round: R96, puzzle: Same State NG 1) | 61 | 85.7 | 170 | – | – | –
20 | GAGGGACGGACGAACAUGAGGAUCACCCAUGUCCUCGGAGGUCAGGAUAUCCGGAGGUAGCCGAAGGAGAAGGGACGGUGAACC [AK SSNG3-V2-31.1] (Eterna round: R96, puzzle: Same State NG 3) | 104 | 51.5 | 85.7 | – | – | –
21 | AUUGCUGUCACAGGAUAUCAUGCGGAAAUCGCGUGAGAAGGGUGGACUCUGUCAUUCACGGAGGACAUGAGGAUCACCCAUGUG [SS NG10LRO19] (Eterna round: R96, puzzle: Same State NG 1) | 66.3 | 8.78 | 22.3 | – | – | –
22 | GCAGAACAUGAGGAUCACCCAUGUCUCUAAUAUUGAGGAUAUGGGCACGGUAUAUCCGAACCAGAAGGCGAACUGC [SS1 Teenbexe 16] (puzzle: Same State 1) | – | – | – | 420 | 322 | 431
23 | GCCGGCUGGUGAGGAUAUGGCGCCUUGUUGGUGCCAGAAGGCAUGUCUUUUGACAUGAGGAUCACCCAUGUGUUGUCGUUGGCG [salish99_SSNG1_r04_613] (Eterna round: R96, puzzle: Same State NG 1) | 221 | 72.3 | 47.8 | – | – | –
24 | AAGUGAUGGGUUAGUAACUGCUAGUAAGGACAUGAGGAUCACCCAUGUGAGUAACGAGCUUUUGCUCGUCUUAUAAA [JR_SHM208A_Sub020] (puzzle: Sensor for hsa-mir-208a) | – | – | – | 89.7 | 48.9 | 110
25 | GAGAGAUGGUUAGGAUAUUCGGUGAUAAUGAUAGAAGAAGGAACUGACAUGAGGAUCACCCAUGUGGGAAUAAUCCAGAGAGAG [Parity 20 - Jieux - Same State NG 1] (Eterna round: R96, puzzle: Same State NG 1) | 103 | 85 | 107 | – | – | –
26 | CAAGAAAACGCAGGAUAUACCCGGGCUACCCGGGUAGAAGGGUGACACAUGAGGAUCACCCAUGUACAUAGAAUUAGCUAUGGA [Soberaa] (Eterna round: R96, puzzle: Same State NG 1) | 284 | 15.9 | 26.7 | – | – | –
27 | UAGAUUCACGUAGGAUAUCGACCUACAUGAGGAUCACCCAUGUUUUUGAAUAGAUUUUUUUGUUACGAGAAGGACGUUAUGUAU [JR_SSNG2_Sub064] (Eterna round: R96, puzzle: Same State NG 2) | 133 | 177 | 268 | – | – | –
28 | GGAGCCGGUACUGAGGAUAUUCAUUUUAAAACAUGAGGAUCACCCAUGUAGGCCAGAAGGCCUUGGGAGAAGGCAGACCAGCUCG [Atgexeedri - 6] (puzzle: Same State 2) | – | – | – | 20.9 | 217 | 369
29 | UUAGAAUUGCAAGGAUAUCUAAUUUAGAUAGUAAGAGAAGGUGCUUUAUAGUUACAUGAGGAUCACCCAUGUUUUUUUUUUUAU [JR_SSNG1_Sub060] (Eterna round: R96, puzzle: Same State NG 1) | 42.3 | 36.3 | 49.9 | – | – | –
30 | AACAUGUGGUGUCACAUGAGGAUCACCCAUGUGGUAAAACCUGAGGAUAUAACGAACCAAAUCAAUUAGAAGGUAGGAUCACAA [AK SSNG3-V2-18] (Eterna round: R96, puzzle: Same State NG 3) | 59.7 | 46.5 | 64.2 | – | – | –
31 | UUGUUUUGUAAUUAACAUGAGGAUCACCCAUGUCUUGGCUCAGAGGAUAUACAUGUUUGAUUGUAGUAGAAGGCUGAAUGUUGU [JR_SSNG3_Sub094] (Eterna round: R96, puzzle: Same State NG 3) | 95.2 | 96 | 131 | – | – | –
